From publication PMC6222095
pKd: −log10 of the molar value. “And” between values parts separate entries of the source, which are not always exact repeats. Equal values may be shown once.

How the values were obtained:
[1] = molecular target: complement factor H, double homozygous His-402/Val-62 allotype (human) (UniProt P08603); test: SPR; Biacore X100, 800 RU of full-length FH amine-coupled to a CM3 chip, FH allotypes flowed at 1.3-12.3 μM, 25 °C, HEPES buffer; estimated KD from steady-state 1:1 affinity fit of maximum responses; sensorgrams did not fit a 1:1 kinetic model
[2] = molecular target: complement factor H, double homozygous His-402/Val-62 allotype (human) (UniProt P08603); test: native MS; Q-ToF nanoflow, FH at about 4 mg/ml (4.4 or 3.6 mg/ml) in 1 M ammonium acetate, pH 7.0; peak integration
[3] = molecular target: complement factor H, double homozygous His-402/Val-62 allotype (human) (UniProt P08603); test: AUC; sedimentation velocity, 20 °C, 50,000 and 60,000 rpm, HEPES buffer (10 mM HEPES, 137 mM NaCl, pH 7.4), five samples of each allotype at 0.5, 1.1 and 2.1 mg/ml; c(s) peak integration; dimer and trimer percentages at 1.1 mg/ml
[4] = molecular target: complement factor H, double homozygous His-402/Val-62 allotype (human) (UniProt P08603); test: SAXS; concentration dependence of Guinier I(0)/c at 0.4-3.3 mg/ml in HEPES buffer, two samples of each allotype; KD estimated assuming a monomer-dimer equilibrium (dimer to monomers)
[5] = molecular target: complement factor H, double homozygous His-402/Val-62 allotype (human) (UniProt P08603); test: native MS; Q-ToF nanoflow, FH at about 4 mg/ml (3.9 mg/ml, 25.3 μM) in 140 mM ammonium acetate, pH 7.0; peak integration
[6] = molecular target: complement factor H, homozygous Tyr-402, homozygous or heterozygous at I62V (human) (UniProt P08603); test: AUC; sedimentation velocity, 20 °C, 50,000 and 60,000 rpm, HEPES buffer (10 mM HEPES, 137 mM NaCl, pH 7.4), five samples of each allotype at 0.5, 1.1 and 2.1 mg/ml; c(s) peak integration; dimer and trimer percentages at 1.1 mg/ml
[7] = molecular target: complement factor H, homozygous Tyr-402, homozygous or heterozygous at I62V (human) (UniProt P08603); test: SAXS; concentration dependence of Guinier I(0)/c at 0.4-3.3 mg/ml in HEPES buffer, two samples of each allotype; KD estimated assuming a monomer-dimer equilibrium (dimer to monomers)
[8] = molecular target: complement factor H, homozygous Tyr-402/Val-62 allotype (human) (UniProt P08603); test: SPR; Biacore X100, 800 RU of full-length FH amine-coupled to a CM3 chip, FH allotypes flowed at 1.3-12.3 μM, 25 °C, HEPES buffer; estimated KD from steady-state 1:1 affinity fit of maximum responses; sensorgrams did not fit a 1:1 kinetic model
[9] = molecular target: complement factor H, homozygous Tyr-402/Val-62 allotype (human) (UniProt P08603); test: native MS; Q-ToF nanoflow, FH at about 4 mg/ml (4.4 or 3.6 mg/ml) in 1 M ammonium acetate, pH 7.0; peak integration
[10] = molecular target: complement factor H, homozygous Tyr-402/Val-62 allotype (human) (UniProt P08603); test: native MS; Q-ToF nanoflow, FH at about 4 mg/ml (3.9 mg/ml, 25.3 μM) in 140 mM ammonium acetate, pH 7.0; peak integration
[11] = molecular target: recombinant FH SCR-6/8 Tyr-402 (human); test: SPR; Biacore X100, 150 RU (His-402 also 400 RU) of SCR-6/8 amine-coupled to a CM4 chip, SCR-6/8 allotypes flowed at 5-40 μM, 25 °C, HEPES buffer with 0.3 mg/ml nonspecific binding reducer; steady-state fits
[12] = molecular target: recombinant FH SCR-6/8 His-402 (human); test: as above

In the case of “complement factor H, double homozygous His-402/Val-62 allotype (from UniProt P08603 19-1231) (natural protein)”, the pKd [1] was 5.17, the percent dimer [2] was 2% and the stoichiometry N [2] was 2. It also gave a percent dimer [3] of 5.7%, a percent oligomers (peaks 2-9) [3] of 12.8% and a percent trimer [3] of 2.5%. For the same substance, the stoichiometry N [3] was less than 9, the pKd [4] was 4.96 and 4.66 and the percent dimer [5] was 17%. The percent trimer [5] was 6% and the stoichiometry N [5] was less than 3.
For “complement factor H, homozygous Tyr-402, homozygous or heterozygous at I62V (from UniProt P08603 19-1231) (natural protein)”, the percent dimer [6] was 4%, the percent oligomers (peaks 2-9) [6] was 11.7% and the percent trimer [6] was 2.1%. For the same substance, the stoichiometry N [6] was less than 9 and the pKd [7] was 4.80 and 4.74.
With “complement factor H, homozygous Tyr-402/Val-62 allotype (from UniProt P08603 19-1231) (natural protein)” the pKd [8] was 5.10, the percent dimer [9] was 10% and the stoichiometry N [9] was 2. It also gave a percent dimer [10] of 24%, a percent trimer [10] of 4% and a stoichiometry N [10] of less than 3.
“recombinant FH SCR-6/8 His-402 (domain or fragment)” gave a pKd [11] of less than 4.40 and a pKd [12] of less than 4.40.
“recombinant FH SCR-6/8 Tyr-402 (domain or fragment)” gave a pKd [11] of less than 4.40 and a pKd [12] of less than 4.40.
